Patent US20140105889A1 (published 2014)
Numbering of substitutions follows the chain as printed. Names may count otherwise. Blank lines part the entries; values can stand above or below the binder they belong to.

Key:
[1] = biological target: T1, human FcγRIIa(R) (human, UniProt P12318 36-217); assay: SPR (Biacore), captured antibody, FcγR analyte; bound/captured amount vs control x100
T1 construct: also called FcgRIIaR; FcγRIIa type R
T1 chain: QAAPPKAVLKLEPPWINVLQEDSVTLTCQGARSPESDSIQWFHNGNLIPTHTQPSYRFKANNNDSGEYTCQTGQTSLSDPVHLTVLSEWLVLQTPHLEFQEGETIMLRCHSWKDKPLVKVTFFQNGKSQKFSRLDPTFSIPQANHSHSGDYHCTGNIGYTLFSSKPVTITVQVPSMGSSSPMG
Procedure: Interaction between each modified antibody and Fcγ receptor prepared in the manner described above was analyzed using the Biacore T100 (GE Healthcare), Biacore T200 (GE Healthcare), Biacore A100 or Biacore 4000. HBS-EP+ (GE Healthcare) was used for the running buffer, and measurements were carried out at 25° C. The chips used were chips in which antigen peptides, Protein A (Thermo Scientific), Protein A/G (Thermo Scientific) or Protein L (ACTIGEN or BioVision) were immobilized on the Series S Sensor Chip CM5 (GE Healthcare) or Series S Sensor Chip CM4 (GE Healthcare) by amine coupling, or chips in which preliminarily biotinylated antigen peptides were allowed to interact and then immobilized on the Series S Sensor Chip SA (certified) (GE Healthcare). The target antibodies were captured on these sensor chips, Fcγ receptor diluted with the running buffer was allowed to interact, followed by measurement of the amount of bound antibody. The amounts bound were compared between antibodies. However, since the amount of Fcγ receptor bound depends on the amount of captured antibody, the values used for comparison were first corrected by dividing the amount of Fcγ receptor bound by the captured amount of each antibody. Through reaction with 10 mM glycine-HCl at pH 1.5, the sensor chips were regenerated by washing off antibody captured on the sensor chips and used repeatedly.

[2] = biological target: T2, human FcγRIIb (human, UniProt P31994 43-217, limits assumed); assay: ratio of this variant's SPR KD for FcγRIIaR to its KD for FcγRIIb
T2 construct: also called FcγIIB; hFcgRIIb
T2 sequence: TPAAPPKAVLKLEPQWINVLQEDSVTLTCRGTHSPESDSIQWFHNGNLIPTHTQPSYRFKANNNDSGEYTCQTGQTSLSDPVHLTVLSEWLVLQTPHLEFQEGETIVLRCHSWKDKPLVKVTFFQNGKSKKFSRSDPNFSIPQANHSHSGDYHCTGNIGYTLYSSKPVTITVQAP
Source text: (§1) Furthermore, KD(IIaR)/KD(IIb) and KD(IIaH)/KD(IIb) in the table respectively represent the value obtained by dividing the KD value of each variant for FcγRIIaR by the KD value of each variant for FcγRIIb, and the value obtained by dividing the KD value of each variant for FcγRIIaH by the KD value of each variant for FcγRIIb.

[3] = biological target: T3, human FcγRIIa type R (human, UniProt P12318 36-217); assay: SPR KD of this variant's stronger FcγRIIa allotype binding divided by that of parent IL6R-B3/IL6R-L
T3 construct: also called FcγRIIaR; FcγRIIa(R)
T3 chain: T1 chain
Source text: as §1

[4] = biological target: T2, human FcγRIIb; assay: ratio of this variant's SPR KD for FcγRIIaH to its KD for FcγRIIb
Source text: as §1

[5] = biological target: T4, human FcγRIIb (human, UniProt P31994 43-217, limits assumed); assay: SPR (Biacore) KD; ratio against the KD for FcγRIIaR
T4 construct: also called hFcgRIIb
T4 sequence: T2 sequence

[6] = biological target: T4, human FcγRIIb; assay: SPR (Biacore) KD; ratio against the KD for FcγRIIaH
[7] = biological target: T3, human FcγRIIa type R; assay: SPR (Biacore), captured antibody, FcγR as analyte, 25 C
Source text: as §1

[8] = biological target: T2, human FcγRIIb; assay: SPR KD for FcγRIIb of parent IL6R-B3/IL6R-L divided by that of this variant
Source text: as §1

[9] = biological target: T5, human FcγRIIIa(F) (human, UniProt P08637 17-208, limits assumed); assay: SPR (Biacore T100), antibody captured by Protein A, FcγR at 2 µmol/L, 25 C
T5 construct: also called hFcgRIIIa(F)
Procedure: (§2) Next, interaction between these antibodies and FcγR was analyzed kinetically using the Biacore T100 (GE Healthcare). The interaction was measured at a temperature of 25° C. using HBS-EP+ (GE Healthcare) for the running buffer. The Series S Sensor Chip CM5 (GE Healthcare) was used after immobilizing Protein A by amine coupling. […] Antibody captured on the chip was washed by allowing 10 mM glycine-HCl (pH 1.5) to react following measurement. The chip regenerated in this manner was used repeatedly. The dissociation constant KD (mol/L) was calculated from the association rate constant ka (L/mol/s) and dissociation rate constant kd (1/s) as calculated by global-fitting the measurement results with a 1:1 Langmuir binding model using the Biacore

[10] = biological target: T6, human FcγRIIa(H) (human, UniProt P12318 36-217); assay: as above
T6 construct: also called hFcgRIIa(H); FcγRIIa type H
T6 sequence: T1 chain with R133H
Procedure: as §2

[11] = biological target: T7, human FcγRIIIa type V (allotype V158) (human, UniProt P08637 17-208, limits assumed); assay: SPR (Biacore), antibody captured on the chip, FcγR as analyte
T7 construct: the assay used allotype V158; also called FcγRIIIaV; FcγRIIIa(V)

[12] = biological target: T8, human FcγRIIa type R (allotype R131) (human, UniProt P12318 36-217); assay: as above
T8 construct: also called FcγRIIaR; FcγRIIa(R)
T8 chain: T1 chain

[13] = biological target: T9, human FcγRIIa type H (allotype H131) (human, UniProt P12318 36-217); assay: as above
T9 construct: also called FcγRIIaH; FcγRIIa(H)
T9 sequence: T1 chain with R133H

[14] = biological target: T10, human FcγRIIb (human, UniProt P31994 43-217); assay: SPR (Biacore); KD of parent IL6R-B3/IL6R-L for FcγRIIb divided by KD of the variant for FcγRIIb
T10 construct: also called FcγIIB
T10 sequence: T2 sequence
Source text: as §1

T5 sequence (P08637 other isoform, or with tags, fused parts or gaps limits assumed): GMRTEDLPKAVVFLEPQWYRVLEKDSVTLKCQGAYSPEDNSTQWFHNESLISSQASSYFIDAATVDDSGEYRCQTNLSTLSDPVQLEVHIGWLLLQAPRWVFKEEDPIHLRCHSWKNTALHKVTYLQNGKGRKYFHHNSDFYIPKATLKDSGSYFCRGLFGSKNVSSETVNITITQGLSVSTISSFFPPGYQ
T7 sequence (P08637 other isoform, or with tags, fused parts or gaps limits assumed): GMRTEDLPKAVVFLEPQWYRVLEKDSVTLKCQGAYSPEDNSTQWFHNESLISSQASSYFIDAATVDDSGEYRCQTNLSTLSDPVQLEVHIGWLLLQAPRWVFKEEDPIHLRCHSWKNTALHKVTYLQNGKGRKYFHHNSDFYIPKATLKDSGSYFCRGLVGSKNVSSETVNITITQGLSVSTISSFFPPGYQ

B1: GpH7-B3 G237P/GpL16-k0 (antibody, human IgG1)
heavy: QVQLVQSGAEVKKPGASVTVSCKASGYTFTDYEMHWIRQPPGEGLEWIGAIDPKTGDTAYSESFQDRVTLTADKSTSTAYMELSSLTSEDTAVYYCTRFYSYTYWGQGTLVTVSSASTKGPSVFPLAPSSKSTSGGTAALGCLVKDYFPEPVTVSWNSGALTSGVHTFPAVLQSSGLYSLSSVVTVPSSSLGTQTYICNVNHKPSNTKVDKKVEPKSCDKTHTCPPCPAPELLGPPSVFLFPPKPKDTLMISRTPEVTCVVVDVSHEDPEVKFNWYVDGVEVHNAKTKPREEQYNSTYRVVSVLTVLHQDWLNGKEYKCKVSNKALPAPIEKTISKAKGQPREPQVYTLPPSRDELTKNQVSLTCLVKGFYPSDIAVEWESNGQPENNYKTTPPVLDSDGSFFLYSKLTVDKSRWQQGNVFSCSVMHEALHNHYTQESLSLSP
light: DIVMTQSPLSLPVTPGEPASISCQASESLVHSNRNTYLHWYLQKPGQSPQLLIYKVSNRFSGVPDRFSGSGSGTDFTLKISRVEAEDVGVYYCSQNTHVPPTFGQGTKVEIE
notes: B3 variant of anti-glypican-3 IgG1; substitution in EU numbering; also called B3 variant
relative binding activity [1]: 8 % of GpH7-B3/GpL16-k0

B2: GpH7-B3 S239R/GpL16-k0 (antibody, human IgG1)
heavy: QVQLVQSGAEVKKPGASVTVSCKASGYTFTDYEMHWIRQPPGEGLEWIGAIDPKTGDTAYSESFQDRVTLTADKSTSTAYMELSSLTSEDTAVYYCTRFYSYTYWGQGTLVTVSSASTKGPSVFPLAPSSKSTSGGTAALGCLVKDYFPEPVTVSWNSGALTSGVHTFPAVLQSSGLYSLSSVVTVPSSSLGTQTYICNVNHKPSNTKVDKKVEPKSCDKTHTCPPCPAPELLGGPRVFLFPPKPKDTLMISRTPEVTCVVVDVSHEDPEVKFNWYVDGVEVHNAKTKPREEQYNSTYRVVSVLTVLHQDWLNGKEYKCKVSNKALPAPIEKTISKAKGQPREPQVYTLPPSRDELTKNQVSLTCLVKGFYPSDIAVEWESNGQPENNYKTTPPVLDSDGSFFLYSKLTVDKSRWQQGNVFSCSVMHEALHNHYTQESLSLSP
light: B1 light
notes: as for B1
relative binding activity [1]: 8 % of GpH7-B3/GpL16-k0

B4: IL6R-F11/IL6R-L (antibody, human IgG1)
heavy: not shown
light: DIQMTQSPSSLSASVGDRVTITCRASQDISSYLNWYQQKPGKAPKLLIYYTSRLHSGVPSRFSGSGSGTDFTFTISSLQPEDIATYYCQQGNTLPYTFGQGTKVEIK
notes: copies: 2 + 2
KD value for FcγRIIaR/KD value for FcγRIIb [5]: 0.7
KD value for FcγRIIaH/KD value for FcγRIIb [6]: 0.7

B5: IL6R-B3/IL6R-L (antibody, human IgG1)
heavy: not shown
light: B4 light
notes: copies: 2 + 2
KD value for FcγRIIaR/KD value for FcγRIIb [5]: 0.3
KD value for FcγRIIaH/KD value for FcγRIIb [6]: 0.2

The remaining lines, values ahead:

KD (IIaR)/KD (IIb) [2]: 16.6
KD value for the stronger of the FcγRIIaR- and FcγRIIaH-binding activities of the variant/that of the parent polypeptide [3]: 6.3
KD (IIaH)/KD (IIb) [4]: 51.9
B3: IL6R-BP089/IL6R-L (antibody, human IgG1)
heavy: QVQLQESGPGLVKPSETLSLTCAVSGHSISHDHAWSWVRQPPGEGLEWIGFISYSGITNYNPSLQGRVTISRDNSKNTLYLQMNSLRAEDTAVYYCARSLARTTAMDYWGEGTLVTVSSASTKGPSVFPLAPSSKSTSGGTAALGCLVKDYFPEPVTVSWNSGALTSGVHTFPAVLQSSGLYSLSSVVTVPSSSLGTQTYICNVNHKPSNTKVDKKVEPKSCDKTHTCPPCPAPEYLGGDSVFLFPPKPKDTLMISRTPEVTCVVVDVSHEDPEVKFNWYVDGVEVHNAKTKPREEQYNSTYRVVSVLTVLHQDWLNGKEYKCKVSNAALPKPIEKTISKAKGQPREPQVYTLPPSRDELTKNQVSLTCLVKGFYPSDIAVEWESNGQPENNYKTTPPVLDSDGSFFLYSKLTVDKSRWQQGNVFSCSVMHEALHNHYTQESLSLSP
light: B4 light
notes: copies: 2 + 2

KD (IIaR)/KD (IIb) [2]: 8.7
KD value for the stronger of the FcγRIIaR- and FcγRIIaH-binding activities of the variant/that of the parent polypeptide [3]: 6.9
Kd [7]: 2.9 µM
KD (IIaH)/KD (IIb) [4]: 45.8
KD(IIb) of the parent polypeptide/KD(IIb) of the altered polypeptide [8]: 5.9
B6: IL6R-BP144/IL6R-L (antibody, human IgG1)
heavy: B3 heavy with Y236L, G239D, K332A
light: B4 light
notes: copies: 2 + 2

binding (RU) [9]: ~2.5 RU
binding (RU) [10]: ~2.5 RU
B7: IgG1-v1 (antibody)
heavy: not shown
light: B4 light
notes: copies: 2 + 2

binding (RU) [9]: ~5 RU
binding (RU) [10]: ~10 RU
B8: IgG1-v2 (antibody)
heavy: not shown
light: B4 light
notes: copies: 2 + 2

Kd [11]: 36 µM
Kd [12]: 0.68 µM
Kd [13]: 7.3 µM
KD(IIb) of the parent polypeptide/KD(IIb) of the altered polypeptide [14]: 44.5
B9: IL6R-BP185/IL6R-L (antibody, human IgG1)
heavy: B3 heavy with E235D, G239D, P273G
light: B4 light
notes: Anti-human IL-6 receptor human IgG1 variant; copies: 2 + 2
